Laboratory results as given in patent publication US20050100554A1 (published 2005).

Experiments:
TNNC1 = biological target: T1, TNNC1 (human, UniProt P63316 1-161); test: Y2H; INT ID 407
T1 construct: also called cbe_4267981

Prey2313 = biological target: T2, Prey2313 (human, UniProt Q8WV44 21-380); test: Y2H; INT ID 399
T2 construct: also called Homo sapiens, clone IMAGE: 3625550, mRNA, partial cds; cbe_2685998
T2 sequence: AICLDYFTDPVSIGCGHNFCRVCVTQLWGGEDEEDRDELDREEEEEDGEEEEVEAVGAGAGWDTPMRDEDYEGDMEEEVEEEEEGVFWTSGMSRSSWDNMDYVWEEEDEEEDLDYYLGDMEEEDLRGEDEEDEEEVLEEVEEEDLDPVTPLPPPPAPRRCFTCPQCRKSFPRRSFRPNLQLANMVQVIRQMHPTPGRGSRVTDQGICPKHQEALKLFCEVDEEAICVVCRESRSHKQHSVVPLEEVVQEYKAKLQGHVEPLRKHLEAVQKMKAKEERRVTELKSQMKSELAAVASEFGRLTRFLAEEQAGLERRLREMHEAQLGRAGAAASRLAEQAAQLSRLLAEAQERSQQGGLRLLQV

[1] = biological target: T3, catenin (cadherin-associated protein), delta 2 (neural plakophilin-related arm-repeat protein) (human, UniProt Q9UQB3 1-1225); test: Y2H; INT ID 397
T3 construct: also called CTNND2; cbe_1796502
T3 sequence: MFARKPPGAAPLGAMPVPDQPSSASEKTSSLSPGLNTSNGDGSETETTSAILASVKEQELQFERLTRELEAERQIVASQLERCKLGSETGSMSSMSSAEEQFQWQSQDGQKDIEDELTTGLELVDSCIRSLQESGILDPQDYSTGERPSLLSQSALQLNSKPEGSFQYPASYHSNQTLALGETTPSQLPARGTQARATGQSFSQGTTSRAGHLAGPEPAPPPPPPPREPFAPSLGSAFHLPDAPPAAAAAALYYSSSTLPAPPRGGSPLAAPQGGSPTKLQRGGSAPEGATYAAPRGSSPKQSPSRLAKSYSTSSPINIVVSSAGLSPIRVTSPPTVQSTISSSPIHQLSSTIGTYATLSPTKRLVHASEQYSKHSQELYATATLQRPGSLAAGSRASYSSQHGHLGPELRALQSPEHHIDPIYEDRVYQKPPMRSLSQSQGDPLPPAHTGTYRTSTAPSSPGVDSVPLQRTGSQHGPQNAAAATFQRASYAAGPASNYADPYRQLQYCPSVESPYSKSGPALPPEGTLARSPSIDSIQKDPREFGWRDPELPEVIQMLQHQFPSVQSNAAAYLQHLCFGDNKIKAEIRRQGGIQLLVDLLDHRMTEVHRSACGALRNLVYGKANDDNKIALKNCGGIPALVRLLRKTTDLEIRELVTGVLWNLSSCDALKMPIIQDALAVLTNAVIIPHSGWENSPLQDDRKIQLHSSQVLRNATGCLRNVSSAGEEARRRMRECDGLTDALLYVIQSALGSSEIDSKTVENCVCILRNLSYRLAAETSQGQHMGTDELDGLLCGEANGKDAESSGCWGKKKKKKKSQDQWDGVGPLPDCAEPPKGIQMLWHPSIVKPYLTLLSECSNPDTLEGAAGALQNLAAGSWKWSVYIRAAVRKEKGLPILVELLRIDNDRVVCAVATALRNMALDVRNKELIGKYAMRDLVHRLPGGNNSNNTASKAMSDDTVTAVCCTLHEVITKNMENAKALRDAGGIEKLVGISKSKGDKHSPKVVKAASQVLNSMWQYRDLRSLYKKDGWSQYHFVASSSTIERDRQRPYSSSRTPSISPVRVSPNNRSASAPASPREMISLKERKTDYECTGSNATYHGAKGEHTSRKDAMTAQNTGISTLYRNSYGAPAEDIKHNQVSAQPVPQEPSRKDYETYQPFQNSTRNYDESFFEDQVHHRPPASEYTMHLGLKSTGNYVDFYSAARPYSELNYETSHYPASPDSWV

[2] = biological target: T4, tumor necrosis factor, alpha-induced protein 1 (endothelial) (human, UniProt Q13829 1-316); test: Y2H; INT ID 402
T4 construct: also called TNFAIP1; cbe_3705944
T4 sequence: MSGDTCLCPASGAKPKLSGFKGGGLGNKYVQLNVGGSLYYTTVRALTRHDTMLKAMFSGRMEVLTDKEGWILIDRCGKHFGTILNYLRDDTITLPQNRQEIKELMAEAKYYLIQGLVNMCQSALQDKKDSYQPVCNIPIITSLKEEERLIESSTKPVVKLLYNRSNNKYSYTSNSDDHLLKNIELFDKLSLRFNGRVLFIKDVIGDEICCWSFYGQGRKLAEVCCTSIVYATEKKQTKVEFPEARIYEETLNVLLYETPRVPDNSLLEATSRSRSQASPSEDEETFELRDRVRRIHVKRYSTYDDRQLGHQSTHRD

[3] = biological target: T5, kinesin-associated protein 3 (human, UniProt Q92845 1-792); test: Y2H; INT ID 406
T5 construct: also called KIFAP3; cbe_4138433

[4] = biological target: T6, hypothetical protein FLJ22729 (human, UniProt Q96QE5 203-360); test: Y2H; INT ID 398
T6 construct: also called cbe_1807361
T6 sequence: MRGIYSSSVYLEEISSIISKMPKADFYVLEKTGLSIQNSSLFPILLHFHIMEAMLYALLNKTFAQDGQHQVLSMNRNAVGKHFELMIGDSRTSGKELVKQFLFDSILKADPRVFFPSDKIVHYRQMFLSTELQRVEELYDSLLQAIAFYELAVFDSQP

ribosomal protein L13 = biological target: T7, ribosomal protein L13 (human, UniProt P26373 1-211); test: Y2H; INT ID 396
T7 construct: also called RPL13; cbe_1380530

CKM = biological target: T8, CKM (human, UniProt P06732 1-381); test: Y2H; INT ID 403
T8 construct: also called MARK4

Y2H; INT ID 393 = biological target: the molecule itself; test: Y2H; INT ID 393

Measured: binding result

T5 sequence (Q92845 whole entry): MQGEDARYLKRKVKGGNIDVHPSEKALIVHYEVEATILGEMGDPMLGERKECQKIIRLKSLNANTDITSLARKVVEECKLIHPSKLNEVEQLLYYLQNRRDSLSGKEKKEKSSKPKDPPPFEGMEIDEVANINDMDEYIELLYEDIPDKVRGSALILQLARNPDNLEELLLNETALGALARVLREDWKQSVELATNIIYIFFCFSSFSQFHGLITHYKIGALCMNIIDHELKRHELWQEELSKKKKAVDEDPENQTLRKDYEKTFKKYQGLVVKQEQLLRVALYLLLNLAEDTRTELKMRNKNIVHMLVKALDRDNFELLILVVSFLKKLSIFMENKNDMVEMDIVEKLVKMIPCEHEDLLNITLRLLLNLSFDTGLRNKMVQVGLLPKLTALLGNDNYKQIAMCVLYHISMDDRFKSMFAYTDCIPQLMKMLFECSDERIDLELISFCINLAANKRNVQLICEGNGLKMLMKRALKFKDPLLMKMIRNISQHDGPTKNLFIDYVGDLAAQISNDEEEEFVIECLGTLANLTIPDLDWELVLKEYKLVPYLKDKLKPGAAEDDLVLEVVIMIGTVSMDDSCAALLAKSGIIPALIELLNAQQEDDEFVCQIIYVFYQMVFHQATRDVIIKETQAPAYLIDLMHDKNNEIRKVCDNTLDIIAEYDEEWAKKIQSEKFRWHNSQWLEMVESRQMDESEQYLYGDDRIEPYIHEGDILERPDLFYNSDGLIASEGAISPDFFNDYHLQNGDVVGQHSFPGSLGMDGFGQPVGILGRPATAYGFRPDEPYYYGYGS
T8 sequence (P06732 whole entry): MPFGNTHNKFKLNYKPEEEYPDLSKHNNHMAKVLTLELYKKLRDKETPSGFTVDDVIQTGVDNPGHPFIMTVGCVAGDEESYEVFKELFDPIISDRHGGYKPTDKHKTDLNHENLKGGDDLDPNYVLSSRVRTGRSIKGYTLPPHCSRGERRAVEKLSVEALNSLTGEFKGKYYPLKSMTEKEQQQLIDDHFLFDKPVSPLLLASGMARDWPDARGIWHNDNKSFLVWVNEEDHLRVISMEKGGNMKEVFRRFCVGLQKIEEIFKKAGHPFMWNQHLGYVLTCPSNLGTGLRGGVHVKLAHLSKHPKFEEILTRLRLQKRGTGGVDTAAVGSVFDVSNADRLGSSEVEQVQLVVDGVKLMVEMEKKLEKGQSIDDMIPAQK

B1: Human Papillomavirus 1a E1-E4 (other)
chain: MADNKAPQGLLGLLQYTPTTQPYPRVTPPSNRRPSTTPNSQDRGRPRRSDKDSRKHLYADGLTDGEDPEVPEVEDEEKENQRPLGHPDLSLLRETLEVYTQRLKRDILQDLDDFCRKLGIHPWSV
notes: also called HPV 1a E1-E4; cbe_251740
binds: all assays above
